Test results as given in IntAct's records for PubMed 11923305.

Assays:
[1] = biological target: src_chick SRC (UniProt P00523)
[2] = biological target: src_human SRC (UniProt P12931)
[3] = biological target: src_human SRC (UniProt P12931); remark: listed apart in the source
[4] = biological target: src_chick SRC (UniProt P00523); remark: listed apart in the source

Row | Substance | effect of a mutation on the interaction [1] | effect of a mutation on the interaction [2] | effect of a mutation on the interaction [3] | effect of a mutation on the interaction [4]
1 | Receptor-type tyrosine-protein phosphatase alpha (Homo sapiens) (from UniProt P18433) S189A | disrupting interaction | disrupting interaction |  | 
2 | Receptor-type tyrosine-protein phosphatase alpha (Homo sapiens) (from UniProt P18433) S204A |  |  | disrupting interaction | disrupting interaction
